Data published in patent US20140243502.

Assays:
[1] = tested on: scFv anti-LIBS-TAP fusion protein
[2] = target: non-targeted mut-scFv-TAP (UniProt P17726)
[3] = target: recombinant tick anticoagulant peptide (rTAP) (UniProt P17726)

factor Xa (fXa)
cleavage of chromogenic substrate (spectrozyme FXa #222) by factor Xa, OD at 405 nm [1]: inhibition of factor Xa activity by rTAP, scFv anti-LIBS-TAP, and non-targeted mut-scFv-TAP, but not by scFv anti-LIBS | cleavage of chromogenic substrate (spectrozyme FXa #222) by factor Xa, OD at 405 nm [2]: inhibition of factor Xa activity by rTAP, scFv anti-LIBS-TAP, and non-targeted mut-scFv-TAP, but not by scFv anti-LIBS | cleavage of chromogenic substrate (spectrozyme FXa #222) by factor Xa, OD at 405 nm [3]: inhibition of factor Xa activity by rTAP, scFv anti-LIBS-TAP, and non-targeted mut-scFv-TAP, but not by scFv anti-LIBS
